Test [1] addresses T1, CCL3L1_HUMAN (Homo sapiens, UniProt P16619). The note with it: read-out: Kd, CCL3L1_HUMAN, previously described evasins; data obtained from publications [20-22,32]; cited from earlier work.
The target in test [2] is T2, CCL3_HUMAN (Homo sapiens, UniProt P10147).
T2 sequence (P10147 24-92): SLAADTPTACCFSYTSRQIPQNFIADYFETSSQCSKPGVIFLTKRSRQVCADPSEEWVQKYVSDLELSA
The note with it: read-out: Kd, CCL3_HUMAN, previously described evasins; data obtained from publications [20-22,32]; cited from earlier work.

For test [3], the target named is T3, CCL8_HUMAN (Homo sapiens, UniProt P80075).
T3 sequence (P80075 24-99): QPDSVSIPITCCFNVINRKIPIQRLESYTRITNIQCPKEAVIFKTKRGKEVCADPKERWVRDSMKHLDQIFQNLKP
Kind of test: Biolayer interferometry (BLI) binding. The procedure, abridged: (§1)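 His-tagged purified tick CKBP captured on Ni-NTA sensors (Octet Red384); chemokine first screened at 300 nM, then binders re-run across several chemokine doses. Kd derived from fitted association, equilibrium and dissociation curves, reported in molar units.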

The subject of test [4] is chemokines. The settings on record: list of chemokines bound, from the literature [18,20-22]; listed as EVA1_RHISA; cited from earlier work.
Test [5] addresses T4, CCL18_HUMAN (Homo sapiens, UniProt P55774).
T4 sequence (P55774 21-89): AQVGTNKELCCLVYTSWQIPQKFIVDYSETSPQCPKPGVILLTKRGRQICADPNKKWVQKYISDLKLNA
The note with it: read-out: Kd, CCL18_HUMAN, previously described evasins; data obtained from publications [20-22,32]; cited from earlier work.

The target in test [6] is T5, CCL4_HUMAN (Homo sapiens, UniProt P13236).
T5 sequence (P13236 24-92): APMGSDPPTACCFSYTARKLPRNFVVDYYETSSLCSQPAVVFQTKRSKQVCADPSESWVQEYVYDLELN
The settings on record: read-out: Kd, CCL4_HUMAN, previously described evasins; data obtained from publications [20-22,32]; cited from earlier work.

For test [7], the target named is T6, CCL17_HUMAN (Homo sapiens, UniProt Q92583).
T6 sequence (Q92583 24-94): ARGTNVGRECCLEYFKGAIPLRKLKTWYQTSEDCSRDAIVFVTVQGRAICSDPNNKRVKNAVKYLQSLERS
Kind of test: Yeast surface display (YSD) FACS binding. The procedure, abridged: (§2)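 Yeast clones displaying tick peptides were re-tested by FACS with labelled chemokine. Binding = % of peptide-expressing yeast above a background threshold set with streptavidin-Alexa647 alone; the mean percent shift was used where several clones were isolated. Confirmed binding ("YES") required >3-fold over background mean fluorescence intensity.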
On the technique in general: Flow cytometry measures light scatter and fluorescence of single cells or particles in a stream.

In test [8] the target is T2, CCL3_HUMAN. Kind of test: Yeast surface display (YSD) FACS binding. The procedure, abridged:
as §2

The target in test [9] is T7, CCL1_HUMAN (Homo sapiens, UniProt P22362).
T7 sequence (P22362 24-96): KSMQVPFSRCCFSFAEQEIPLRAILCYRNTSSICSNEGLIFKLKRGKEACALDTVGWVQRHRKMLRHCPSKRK
Kind of test: Yeast surface display (YSD) FACS binding. A digest of the protocol:
as §2

Test [10] addresses T8, CCL11_HUMAN (Homo sapiens, UniProt P51671). Kind of test: Yeast surface display (YSD) FACS binding. A digest of the protocol: as §2
The target in test [11] is T9, CCL5_HUMAN (Homo sapiens, UniProt P13501).
T9 sequence (P13501 24-91): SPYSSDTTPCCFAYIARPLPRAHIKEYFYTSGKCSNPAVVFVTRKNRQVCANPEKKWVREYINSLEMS
Put plainly: Yeast surface display (YSD) FACS binding. A digest of the protocol: as §2

Test [12] has as its target T10, CCL19_HUMAN (Homo sapiens, UniProt Q99731).
T10 sequence (Q99731 22-98): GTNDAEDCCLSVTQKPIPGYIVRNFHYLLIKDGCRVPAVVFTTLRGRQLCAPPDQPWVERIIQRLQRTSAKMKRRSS
Put plainly: Yeast surface display (YSD) FACS binding. The procedure, abridged: as §2

The target in test [13] is T11, CCL23_HUMAN (Homo sapiens, UniProt P55773).
T11 sequence (P55773 22-120): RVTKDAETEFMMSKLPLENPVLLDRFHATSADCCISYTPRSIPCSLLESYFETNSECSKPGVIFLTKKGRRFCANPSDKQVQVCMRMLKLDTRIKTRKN
Put plainly: Biolayer interferometry (BLI) binding. A digest of the protocol:
as §1
(Biolayer interferometry detects binding as a change in optical thickness at a sensor tip.)

The target in test [14] is T8, CCL11_HUMAN. Put plainly: Biolayer interferometry (BLI) binding. The procedure, abridged:
as §1

Test [15] deals with T4, CCL18_HUMAN. Put plainly: Biolayer interferometry (BLI) binding. The procedure, abridged:
as §1

Test [16] concerns the target T12, CCL27_HUMAN (Homo sapiens, UniProt Q9Y4X3).
T12 sequence (Q9Y4X3 25-112): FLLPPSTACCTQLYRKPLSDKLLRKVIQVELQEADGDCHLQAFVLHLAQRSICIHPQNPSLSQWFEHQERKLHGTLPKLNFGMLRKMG
Put plainly: Biolayer interferometry (BLI) binding. The procedure, abridged: as §1

The target of test [17] is T1, CCL3L1_HUMAN. Put plainly: Biolayer interferometry (BLI) binding. The procedure, abridged:
as §1

In test [18] the target is T9, CCL5_HUMAN. Kind of test: Biolayer interferometry (BLI) binding. A digest of the protocol:
as §1

Test [19] deals with T13, CCL22_HUMAN (Homo sapiens, UniProt O00626).
T13 sequence (O00626 25-93): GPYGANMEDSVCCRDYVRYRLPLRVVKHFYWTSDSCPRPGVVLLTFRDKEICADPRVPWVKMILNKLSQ
Kind of test: Biolayer interferometry (BLI) binding. The procedure, abridged: as §1

Test [20] addresses T14, CCL15_HUMAN (Homo sapiens, UniProt Q16663).
T14 sequence (Q16663 22-113): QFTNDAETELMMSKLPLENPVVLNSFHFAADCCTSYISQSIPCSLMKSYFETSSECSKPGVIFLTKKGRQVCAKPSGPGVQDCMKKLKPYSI
Kind of test: Biolayer interferometry (BLI) binding. A digest of the protocol: as §1

Test [21] concerns the target T5, CCL4_HUMAN. Put plainly: Biolayer interferometry (BLI) binding. The procedure, abridged:
as §1

The target of test [22] is T15, CCL24_HUMAN (Homo sapiens, UniProt O00175).
T15 sequence (O00175 27-119): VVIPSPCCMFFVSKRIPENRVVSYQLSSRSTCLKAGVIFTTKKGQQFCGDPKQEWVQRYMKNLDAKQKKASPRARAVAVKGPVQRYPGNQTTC
Put plainly: Biolayer interferometry (BLI) binding. The procedure, abridged: as §1

Test [23] deals with CCL7_HUMAN (Homo sapiens, UniProt P80098). Put plainly: Biolayer interferometry (BLI) binding. The procedure, abridged:
as §1

The target in test [24] is T16, CCL4L1_HUMAN (Homo sapiens, UniProt Q8NHW4).
T16 sequence (Q8NHW4 24-92): T5 sequence (P13236 24-92) with S47G
Kind of test: Biolayer interferometry (BLI) binding. The procedure, abridged:
as §1

Test [25] deals with CCL13_HUMAN (Homo sapiens, UniProt Q99616). Put plainly: Biolayer interferometry (BLI) binding. A digest of the protocol:
as §1

Test [26] addresses T17, CCL14_HUMAN (Homo sapiens, UniProt Q16627).
T17 sequence (Q16627 20-93): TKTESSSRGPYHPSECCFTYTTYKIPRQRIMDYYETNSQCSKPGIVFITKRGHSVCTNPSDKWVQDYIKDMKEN
Put plainly: Biolayer interferometry (BLI) binding. A digest of the protocol:
as §1

Test [27] has as its target T10, CCL19_HUMAN. Put plainly: Biolayer interferometry (BLI) binding. A digest of the protocol: as §1
Test [28] has as its target T4, CCL18_HUMAN. Kind of test: Yeast surface display (YSD) FACS binding. A digest of the protocol: as §2
The target of test [29] is CXCL12_HUMAN (Homo sapiens, UniProt P48061). Put plainly: Yeast surface display (YSD) FACS binding. The note with it: yeast surface display. A digest of the protocol:
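Yeast clones displaying tick peptides were re-tested by FACS with labelled chemokine detected by streptavidin-Alexa conjugate. Binding was scored as % of peptide-expressing cells above a background set with streptavidin-Alexa alone, averaged over independent clones. In the screen tables, >3-fold over background mean fluorescence intensity was scored as binding.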

The source of these data is US20200247855A1, “THERAPY AND DIAGNOSTICS” (OXFORD UNIVERSITY INNOVATION LIMITED, priority 2017, published 2020).

Substitutions are numbered along the chain they refer to. “Also recorded” adds a separate entry of the source. Where two headings read alike, the source gives them in different places.

T8 sequence (P51671 24-97): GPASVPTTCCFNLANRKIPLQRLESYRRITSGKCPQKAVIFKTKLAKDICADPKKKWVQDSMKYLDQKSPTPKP
T1 sequence (P16619 24-93): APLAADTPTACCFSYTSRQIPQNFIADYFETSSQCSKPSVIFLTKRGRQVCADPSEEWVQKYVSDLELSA
CCL7_HUMAN, sequence (P80098 24-99): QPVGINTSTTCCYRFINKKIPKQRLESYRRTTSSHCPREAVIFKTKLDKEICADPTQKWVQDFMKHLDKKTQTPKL
CCL13_HUMAN, sequence (Q99616 17-98): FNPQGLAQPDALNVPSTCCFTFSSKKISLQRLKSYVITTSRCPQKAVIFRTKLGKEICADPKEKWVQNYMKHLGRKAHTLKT
CXCL12_HUMAN, sequence (P48061 22-93): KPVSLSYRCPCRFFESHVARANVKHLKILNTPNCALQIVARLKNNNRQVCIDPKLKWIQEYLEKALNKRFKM

B1: EVASIN1: previously described tick CKBP evasin 1, from Rhipicephalus sanguineus (protein, listed as Rhipicephalus sanguineus)
chain: EDDEDYGDLGGCPFLVAENKTGYPTIVACKQDCNGTTETAPNGTRCFSIGDEGLRRMTANLPYDCPLGQCSNGDCIPKETYEVCYRRNWRDKKN
Broadly, the Kd is the concentration at which binding is half-saturated. With B1, the Kd in [1] is 0.05 nM; in [2], 0.1 nM; in [5], 3 nM; in test [6] it was 0.5 nM. Moreover, the “CCL8 binding (bound or not)” value in test [3] (300 nM or 600 nM CCL8) is “did not”. Moreover, the “Previously described chemokine binding” value in test [4] is “CCL3, CCL3L1, CCL4, CCL4L1, CCL14 and CCL18 but not CCL8; also recorded: CCL3, CCL3L1,; also recorded: CCL4, CCL18”.

B2: P1005_AMBMA: tick CKBP, Amblyomma maculatum (protein, listed as Amblyomma maculatum)
chain: EKDTPKNIPGCGDTGTTAAPPADNPKHFAVYTDKHGCTIKVIGTWMTKEDHSRLPVSLRRVRASSGRVMLPASCQKICNDTVKNFPEGTPCRLVTGDPIKGKNHIKDGCIRGYCSSGVCVSDKRNISCYVPPN
Take B2: the “Binding to CCL17_HUMAN, YSD” value in [7] is “YES (An arbitrary threshold of >3 fold over background mean fluorescence intensity was chosen to describe confirmed re-tests. Where binding was detected data are indicated as “YES”)”. The “Binding to CCL3_HUMAN, YSD” value in test [8] is “YES (An arbitrary threshold of >3 fold over background mean fluorescence intensity was chosen to describe confirmed re-tests. Where binding was detected data are indicated as “YES”)”. In addition, in test [9], the “Binding to CCL1_HUMAN, YSD” value is “YES (An arbitrary threshold of >3 fold over background mean fluorescence intensity was chosen to describe confirmed re-tests. Where binding was detected data are indicated as “YES”)”. The “Binding to CCL11_HUMAN, YSD” value in test [10] was “YES (An arbitrary threshold of >3 fold over background mean fluorescence intensity was chosen to describe confirmed re-tests. Where binding was detected data are indicated as “YES”)”. For the same molecule, the “Binding to CCL5_HUMAN, YSD” value in [11] is reported as “YES (An arbitrary threshold of >3 fold over background mean fluorescence intensity was chosen to describe confirmed re-tests. Where binding was detected data are indicated as “YES”)”. Also, the “Binding to CCL19_HUMAN, YSD” value in test [12] is given as “YES (An arbitrary threshold of >3 fold over background mean fluorescence intensity was chosen to describe confirmed re-tests. Where binding was detected data are indicated as “YES”)”.

B3: P991_AMBCA: tick CKBP, Amblyomma cajennense (protein)
chain: ENGEGTTQPDYDNSTDYYNYEDFKCTCPAPHLNNTNGTVMKPIGCYYTCNVTRCTAPDTYPCYNLTEHQAKNLTTSPTTLCAVGNCDHGICVPNGTKELCFKAPNLEE
modifications: Amblyomma cajennense
For the molecule B3, the Kd in [13] was found to be 5.58 nM; in test [14], 3.43 nM; in test [15] it was 0.209 nM; in test [16], 38.9 nM; in test [17] it was 1.4 nM; in [3] (read-out: Kd, CCL8_HUMAN) it was 8.79 nM. For the same molecule, the Kd in test [18] was found to be 1.47 nM; in test [19], 3.97 nM; in test [20], 159 nM; in test [21] it was 5.82 nM; in [22], 6.54 nM; in test [23], 0.514 nM. In addition, the Kd in test [24] worked out at 0.827 nM; in [25], 0.419 nM; in test [26] it was 0.43 nM; in [27], 14.4 nM.

B4: P1029_AMBPA: tick CKBP, Amblyomma parvum; named P1209_AMBPA in Table 1 (protein, listed as Amblyomma parvum)
chain: KTDTKNAAGELPPKVAIPGCEDPATTKAPLPDDPRYYGVTIDKDGCQRKVLGSSQRQQRQVQNGRKPGRKGRGRRPVFVDLKLTVDCKRKCNGTYSQLPDGEPCLVCDGEPYGRHRTIKGGCYQGNCSSGQCHRGERKVNCYIPKNITNNVLNSVNLAE
As to B4, in [9], the “Binding to CCL1_HUMAN, YSD” value is “YES (An arbitrary threshold of >3 fold over background mean fluorescence intensity was chosen to describe confirmed re-tests. Where binding was detected data are indicated as “YES”)”. Further, the “Binding to CCL11_HUMAN, YSD” value in [10] was “YES (An arbitrary threshold of >3 fold over background mean fluorescence intensity was chosen to describe confirmed re-tests. Where binding was detected data are indicated as “YES”)”. Moreover, the “Binding to CCL18_HUMAN, YSD” value in test [28] is on record as “YES (An arbitrary threshold of >3 fold over background mean fluorescence intensity was chosen to describe confirmed re-tests. Where binding was detected data are indicated as “YES”)”. For the same molecule, the “Binding to CCL5_HUMAN, YSD” value in [11] is “YES (An arbitrary threshold of >3 fold over background mean fluorescence intensity was chosen to describe confirmed re-tests. Where binding was detected data are indicated as “YES”)”. Also, the “Binding to CXCL12_HUMAN, YSD” value in [29] was “YES (An arbitrary threshold of >3 fold over background mean fluorescence intensity was chosen to describe confirmed re-tests. Where binding was detected data are indicated as “YES”)”.
